How the values were obtained:
[1] = target: T1, LIG1 EE/AA (C-terminal, Δ261) (UniProt P18858 262-919, E346A;E592A); assay: X-ray crystallography; AMP, pre-catalytic (DNA-AMP); EDTA, no metal added; BLI: 20 mM HEPES pH 7.4, 200 mM NaCl, 0.5% BSA, 0.05% Tween 20, 40 nM DNA loaded, sensors hydrated at 20 C; crystals: 20 mM Tris-HCl pH 7.0, 200 mM NaCl, 1 mM DTT, 1 mM EDTA, 1 mM ATP, 1.4:1 DNA:protein, 20 C; settings: protein: recombinant, tags: 6xHis, nicked duplex, blunt outer ends
LIG1 wild-type = LIG1 wild-type (UniProt P18858 262-919); assay: as above; settings: protein: recombinant; tags: 6xHis; nicked duplex, blunt outer ends; 8-oxoG:C Watson-Crick pair at nick
[2] = target: T1, LIG1 EE/AA (C-terminal, Δ261); assay: X-ray crystallography; post-catalytic, nick sealed; EDTA, no metal added; BLI: 20 mM HEPES pH 7.4, 200 mM NaCl, 0.5% BSA, 0.05% Tween 20, 40 nM DNA loaded, sensors hydrated at 20 C; crystals: 20 mM Tris-HCl pH 7.0, 200 mM NaCl, 1 mM DTT, 1 mM EDTA, 1 mM ATP, 1.4:1 DNA:protein, 20 C; settings: protein: recombinant; tags: 6xHis; nicked duplex, blunt outer ends; 8-oxorG:A Hoogsteen pair; nick sealed in crystal

T1 sequence (P18858 262-919 E346A/E592A): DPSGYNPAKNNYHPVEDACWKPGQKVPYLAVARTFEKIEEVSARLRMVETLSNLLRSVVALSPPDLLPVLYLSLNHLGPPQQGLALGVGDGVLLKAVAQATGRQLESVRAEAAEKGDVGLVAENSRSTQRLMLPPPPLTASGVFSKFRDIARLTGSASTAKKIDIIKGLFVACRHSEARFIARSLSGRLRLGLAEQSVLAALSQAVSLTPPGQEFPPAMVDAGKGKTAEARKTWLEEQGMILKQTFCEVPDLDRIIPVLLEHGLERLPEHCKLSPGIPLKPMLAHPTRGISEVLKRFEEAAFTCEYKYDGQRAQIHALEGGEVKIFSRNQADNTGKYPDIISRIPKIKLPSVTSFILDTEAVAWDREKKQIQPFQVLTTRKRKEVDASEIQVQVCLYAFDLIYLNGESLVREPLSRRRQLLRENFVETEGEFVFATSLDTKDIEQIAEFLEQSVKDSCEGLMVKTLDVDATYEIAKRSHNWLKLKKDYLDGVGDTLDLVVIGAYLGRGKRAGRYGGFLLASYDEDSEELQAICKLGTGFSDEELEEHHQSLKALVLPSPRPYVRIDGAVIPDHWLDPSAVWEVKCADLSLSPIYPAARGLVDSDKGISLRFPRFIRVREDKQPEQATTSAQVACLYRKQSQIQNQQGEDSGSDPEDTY
LIG1 wild-type, sequence (P18858 262-919): as the sequence (P18858 262-919 E346A/E592A) above, with A85E, A331E counted along it

B1: nick 3'-8-oxodG:C (dsDNA)
DNA 1: GCTGATGCGTG
DNA 2: GTCGGAC
DNA 3: GTCCGACCACGCATCAGC
modifications: 8-oxodG at 3' end of strand 1 (nt 11); 5'-phosphate on strand 2 (5'-AMP in crystal)
**Q.** Does B1 bind ([1]; 8-oxoG:C Watson-Crick pair at nick)?
**A.** Result: binds

**Q.** Does B1 bind (LIG1 wild-type)?
**A.** Result: binds

B2: nick 3'-8-oxodG:A (dsDNA)
DNA 1: GCTGATGCGTG
DNA 2: GTCGGAC
DNA 3: GTCCGACAACGCATCAGC
modifications: 8-oxodG at 3' end of strand 1 (nt 11); 5'-phosphate on strand 2 (5'-AMP in crystal)
**Q.** Does B2 bind ([1]; 8-oxoG:A Hoogsteen pair at nick)?
**A.** Result: binds

B3: nick 3'-8-oxorG:A (mixed)
DNA 1: GCTGATGCGTG
DNA 2: GTCGGAC
DNA 3: GTCCGACAACGCATCAGC
modifications: 8-oxo-riboG at 3' end of strand 1 (nt 11), rest DNA; 5'-phosphate on strand 2; strands 1 and 2 ligated in the crystal
**Q.** Does B3 bind [2]?
**A.** Result: binds

B4: nick 3'-8-oxorG:C (mixed)
DNA 1: GCTGATGCGTG
DNA 2: GTCGGAC
DNA 3: GTCCGACCACGCATCAGC
modifications: 8-oxo-riboG at 3' end of strand 1 (nt 11), rest DNA; 5'-phosphate on strand 2 (5'-AMP in crystal)
**Q.** Does B4 bind ([1]; 8-oxorG:C Watson-Crick pair at nick)?
**A.** Result: binds
